This is an account of results in patent US20150203579A1.

For assay [1], the target named is full length human PD-1 on HEK293/hPD-1 cells (human) (UniProt Q15116). The experiment in a line: FACS dose response, HEK293/hPD-1 cells; control.
For assay [2] the target is unchanged. The experiment in a line: FACS dose response, HEK293/hPD-1 cells; control. The source holds these as a separate data set.
The target of assay [3] is recombinant human PD-1 dimer expressed with a C-terminal mouse IgG2a Fc tag (human). The assay is described as follows: competition ELISA: 100 pM hPD-1-mFc to coated hPD-L2-hFc; NBI. In general terms: An ELISA detects its analyte on a solid surface through an enzyme-linked reagent.
Assay [4] addresses PD-1 chimera: extracellular domain of human PD-1 with trans-membrane and cytoplasmic domains of human CD300a, on Jurkat/AP1-Luc cells (human) (UniProt Q9UGN4). The assay is described as follows: cell-based or functional assay.
The target of assay [5] is dimeric biotinylated human PD-1 protein with a C-terminal human Fc tag (human). The assay is described as follows: competition ELISA: 200 pM biot-hPD-1-hFc to coated hPD-L1-mFc; NBI.
Assay [6] deals with recombinant human PD-1 dimer expressed with a C-terminal mouse IgG2a Fc tag (human). The experiment in a line: competition ELISA: 1.5 nM hPD-1-mFc to coated hPD-L1-hFc; NBI.

Like-named read-outs stand apart in the source and are kept apart here.

Consider mIgG1 isotype control (antibody), for which the Max Geom. Mean MFI @ 100 nM in assay [1] came to 200 MFI; in assay [2], 858 MFI.

Regarding Isotype control 2 (antibody), the % blocking at 100 nM antibody in assay [3] was -27%. Consider mIgG2a isotype control (antibody), for which the Max Geom. Mean MFI @ 100 nM in assay [1] was found to be 239 MFI; in assay [2], 352 MFI.

As for hIgG4 isotype control (antibody), the Emax mean [%] @ 100 nM in assay [4] is 98%. This substance displayed a Max Geom. Mean MFI @ 100 nM in assay [2] of 809 MFI. Turning to Isotype control 1 (antibody), the % blocking at 50 nM antibody in assay [5] stood at 19%. For the same substance, the % blocking at 200 nM antibody in assay [6] is -3%.
